Source: US20260031189A1 (BIONTECH US, published 2026)

Target: S353-369
Assay: FP assay; pair as listed in Table 23

B1: HLA-DRA*01:01/DRB4*01:03 soluble heterodimer (receptor)
MHC II alpha: not shown
MHC II beta: not shown
notes: also called HLA-DRB4*01:03/DRA*01:01
**Q.** Does B1 bind?
**A.** Result: binds
